In article PMC4686876, “Architecture of high-affinity unnatural-base DNA aptamers toward pharmaceutical applications”:

Target: interferon-gamma (IFNγ) (human, UniProt P01579 24-161)
Test: SPR; method inferred; no citation given with the value; SPR (BIAcore T200, biotinylated aptamer on SA chip), 1x PBS (1 mM KH2PO4, 3 mM Na2HPO4) with 205 mM NaCl final, 0.05% NP-40, pH 7.4, 25 °C; IFNγ 1.25-50 nM
Conditions: protein: recombinant; chain copies: 2

Chain of interferon-gamma (IFNγ) (P01579 24-161): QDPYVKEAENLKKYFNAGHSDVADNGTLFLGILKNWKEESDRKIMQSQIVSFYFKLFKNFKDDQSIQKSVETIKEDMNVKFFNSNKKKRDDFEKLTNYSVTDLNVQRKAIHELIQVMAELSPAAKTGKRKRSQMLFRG

B1: aptamer 49A (structured_DNA)
DNA: TCCACTCGGGTCATTTAATAATGTAGGTATGGGCTAGGCAGCTAGTGGA
- Kd: 7.2 nM
